Data as given in the RNAGym collection of RNA variant scans (doi:10.7554/elife.80360).

B1: Hammerhead Ribozyme (parent)
chain: ACCGGAUGUGCUUUCCGGUCUGAUGAGUCCGUGAGGACGAAACAG

Variants of: B1
Test: self-cleavage, relative activity (ratio to wild type); higher = more cleavage; co-transcriptional

Variant | self-cleavage
ACCGAAUGUGCUUUCCGGUCUGAUGAGUCCGUGAGGACGAACCAG | 0.359
ACCGAAUGUGCUUUCCGGUCUGAUGAGUCCGUGAGGACGAAGCAG | 0.387
ACCGAAUGUGCUUUCCGGUCUGAUGAGUCCGUGAGGACGAAUCAG | 0.353
ACCGAAUGUGCUUUCCGGUCUGAUGAGUCCGUGAGGACGAAACCG | 0.662
ACCGAAUGUGCUUUCCGGUCUGAUGAGUCCGUGAGGACGAAACGG | 1.29
ACCGAAUGUGCUUUCCGGUCUGAUGAGUCCGUGAGGACGAAACUG | 0.532
ACCGAAUGUGAUUUCCGGUCUGAUGAGUCCGUGAGGACGAAACAG | 1.43
ACCGAAUGUGGUUUCCGGUCUGAUGAGUCCGUGAGGACGAAACAG | 1.27
ACCGAAUGUGUUUUCCGGUCUGAUGAGUCCGUGAGGACGAAACAG | 0.804
ACCGAAUGUGCUUUACGGUCUGAUGAGUCCGUGAGGACGAAACAG | 1.32
ACCGAAUGUGCUUUGCGGUCUGAUGAGUCCGUGAGGACGAAACAG | 1.53
ACCGAAUGUGCUUUUCGGUCUGAUGAGUCCGUGAGGACGAAACAG | 1.78
ACCGAAUGUGCUUUCAGGUCUGAUGAGUCCGUGAGGACGAAACAG | 1.56
ACCGAAUGUGCUUUCGGGUCUGAUGAGUCCGUGAGGACGAAACAG | 0.931
ACCGAAUGUGCUUUCUGGUCUGAUGAGUCCGUGAGGACGAAACAG | 1.54
ACCGAAUGUGCUUUCCGGUAUGAUGAGUCCGUGAGGACGAAACAG | 0.415
ACCGAAUGUGCUUUCCGGUGUGAUGAGUCCGUGAGGACGAAACAG | 0.286
ACCGAAUGUGCUUUCCGGUUUGAUGAGUCCGUGAGGACGAAACAG | 1.01
ACCGAAUGUGCUUUCCGGUCUGAUGAGUACGUGAGGACGAAACAG | 0.445

Variant | self-cleavage
ACCGAAUGUGCUUUCCGGUCUGAUGAGUGCGUGAGGACGAAACAG | 0.464
ACCGAAUGUGCUUUCCGGUCUGAUGAGUUCGUGAGGACGAAACAG | 0.95
ACCGAAUGUGCUUUCCGGUCUGAUGAGUCAGUGAGGACGAAACAG | 1.08
ACCGAAUGUGCUUUCCGGUCUGAUGAGUCGGUGAGGACGAAACAG | 0.597
ACCGAAUGUGCUUUCCGGUCUGAUGAGUCUGUGAGGACGAAACAG | 1.43
ACCGAAUGUGCUUUCCGGUCUGAUGAGUCCGUGAGGAAGAAACAG | 0.65
ACCGAAUGUGCUUUCCGGUCUGAUGAGUCCGUGAGGAGGAAACAG | 0.575
ACCGAAUGUGCUUUCCGGUCUGAUGAGUCCGUGAGGAUGAAACAG | 0.935
ACCGAAUGUGCUUUCCGGUCUGAUGAGUCCGUGAGGACGAAAAAG | 0.34
ACCGAAUGUGCUUUCCGGUCUGAUGAGUCCGUGAGGACGAAAGAG | 0.312
ACCGAAUGUGCUUUCCGGUCUGAUGAGUCCGUGAGGACGAAAUAG | 0.467
ACCGAAUAUGCUUUCCGGUCUGAUGAGUCCGUGAGGACGAAACAG | 1.24
ACCGAAUCUGCUUUCCGGUCUGAUGAGUCCGUGAGGACGAAACAG | 0.954
ACCGAAUUUGCUUUCCGGUCUGAUGAGUCCGUGAGGACGAAACAG | 1.33
ACCGAAUGUACUUUCCGGUCUGAUGAGUCCGUGAGGACGAAACAG | 1.54
ACCGAAUGUCCUUUCCGGUCUGAUGAGUCCGUGAGGACGAAACAG | 1.16
ACCGAAUGUUCUUUCCGGUCUGAUGAGUCCGUGAGGACGAAACAG | 1.73
ACCGAAUGUGCUUUCCAGUCUGAUGAGUCCGUGAGGACGAAACAG | 0.397
ACCGAAUGUGCUUUCCCGUCUGAUGAGUCCGUGAGGACGAAACAG | 0.434

Variant | self-cleavage
ACCGAAUGUGCUUUCCUGUCUGAUGAGUCCGUGAGGACGAAACAG | 0.452
ACCGAAUGUGCUUUCCGAUCUGAUGAGUCCGUGAGGACGAAACAG | 0.47
ACCGAAUGUGCUUUCCGCUCUGAUGAGUCCGUGAGGACGAAACAG | 0.386
ACCGAAUGUGCUUUCCGUUCUGAUGAGUCCGUGAGGACGAAACAG | 0.371
ACCGAAUGUGCUUUCCGGUCUAAUGAGUCCGUGAGGACGAAACAG | 0.322
ACCGAAUGUGCUUUCCGGUCUCAUGAGUCCGUGAGGACGAAACAG | 0.315
ACCGAAUGUGCUUUCCGGUCUUAUGAGUCCGUGAGGACGAAACAG | 0.325
ACCGAAUGUGCUUUCCGGUCUGAUAAGUCCGUGAGGACGAAACAG | 0.327
ACCGAAUGUGCUUUCCGGUCUGAUCAGUCCGUGAGGACGAAACAG | 0.268
ACCGAAUGUGCUUUCCGGUCUGAUUAGUCCGUGAGGACGAAACAG | 0.354
ACCGAAUGUGCUUUCCGGUCUGAUGAAUCCGUGAGGACGAAACAG | 0.776
ACCGAAUGUGCUUUCCGGUCUGAUGACUCCGUGAGGACGAAACAG | 0.61
ACCGAAUGUGCUUUCCGGUCUGAUGAUUCCGUGAGGACGAAACAG | 0.538
ACCGAAUGUGCUUUCCGGUCUGAUGAGUCCAUGAGGACGAAACAG | 1.65
ACCGAAUGUGCUUUCCGGUCUGAUGAGUCCCUGAGGACGAAACAG | 1.32
ACCGAAUGUGCUUUCCGGUCUGAUGAGUCCUUGAGGACGAAACAG | 1.61
ACCGAAUGUGCUUUCCGGUCUGAUGAGUCCGUAAGGACGAAACAG | 1.44
ACCGAAUGUGCUUUCCGGUCUGAUGAGUCCGUCAGGACGAAACAG | 1.22
ACCGAAUGUGCUUUCCGGUCUGAUGAGUCCGUUAGGACGAAACAG | 1.44
